Test results reported in the supplement of paper PMC12042874.
± gives the uncertainty stated by the source.

Assay: amyloid nucleation score (Sup35N fusion, yeast selection) (log enrichment); library NNK2; higher = more nucleation; inactive = no reads after selection
Procedure, shortened: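 In psi-negative yeast, Sup35N fusions carrying peptides of 20 random codons were induced with 100 μM copper sulfate for 24 hours. The cells then grew 7 days at 30°C on medium lacking adenine and uracil, and plasmid inserts from input and output were Illumina-sequenced, excluding sequences with under 100 input reads. Nucleation score is the DiMSum log enrichment of output over input reads, centred on the mode score of non-aggregating sequences.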

Substance	amyloid nucleation score
KTDRLTKGTATFKRMTEI	inactive
KTFLVDSLCNRL	inactive
KTFRCRRCGNN	0.721 ± 0.6
KTLFINLHSCCANVGYAVRW	4.87 ± 0.058
KTNSIPYSMVS	-0.113 ± 1.1
KTTHDCGSAHVGL	-0.504 ± 0.63
KVAFKIALKSSTIWFIDS	2.47 ± 0.13
KVANRYIK	0.136 ± 0.32
KVFSPHRNWWVI	0.553 ± 0.57
KVLLMTRT	-0.113 ± 0.45
KVSSLNCCVRCLDTMCAFQV	6.15 ± 0.088
KWFSIMRPVRLVRFHWTGSN	3.63 ± 0.089
KWPHRYINTLVPLLIRWTYR	-0.421 ± 0.37
KWRAFYPSTGSLRVEILSF	-1.22 ± 1.1
KWSFF	4.34 ± 0.081
KWYKVVNMALALISMWSQAW	-0.701 ± 0.63
KYEIRAASARGGSNVCFCIG	0.691 ± 0.19
KYNQPIMNSSSRGADCGCVR	4.16 ± 0.07
KYNSCSYEGSRRILFSGACR	-0.699 ± 0.45
KYVFGKTYPRY	inactive
LAALR	0.159 ± 0.3
LAGGCRRTPAVINRLFVKTA	0.374 ± 0.4
LAGNKYPWLS	-1.1 ± 0.53
LAHGPWGVSGDSV	0.019 ± 1.1
LAIDIMPFPCDTLS	-0.289 ± 0.26
LAKFYLWCSGYMHSS	0.214 ± 0.65

Substance	amyloid nucleation score
LAKHTGRAGKRCKDMP	-0.069 ± 0.31
LALCREWVTAGSGSFYLDGP	-0.06 ± 1.1
LALIMTFLQPGERLRGSVAI	inactive
LALMS	-0.324 ± 0.61
LANYYFYYKDDVWQVMLWCT	-1.15 ± 0.36
LARGCFAFN	-0.363 ± 1
LATNNVS	0.979 ± 0.67
LATTVYFGAMGHVS	-1.38 ± 1
LATWLP	0.871 ± 0.21
LAVHYHILRERTALCLGDHQ	-0.127 ± 1.1
LAVIGVSRGMGL	0.716 ± 0.25
LAVLGVVDNIV	0.516 ± 0.4
LAVVTCHCSSTCCSYLLNVG	3.38 ± 0.06
LAYPMISVFYHELIIDLRSM	3.92 ± 0.11
LAYRKVLCMYSVSHSYTRAC	inactive
LCFATYVGTGCVLGLPGYHK	4.59 ± 0.066
LCHYGCMVRESNLEYCPSME	0.381 ± 0.48
LCIDHYVDEMPSIRVVDFYF	0.741 ± 0.6
LCINN	-1.99 ± 1.1
LCLDIMFVSNI	-0.696 ± 1
LCNGLFTFMEASSGRHAPQF	0.138 ± 0.76
LCNNKAYNDKLSPEPLAISR	-0.578 ± 0.39
LCPLTHFFVFEVYFSDPYRE	5.69 ± 0.075
LCSLDSMPHSYITCSAKRLI	-0.443 ± 0.3
LCSMEIWRMRRMMQS	0.154 ± 0.34
LCVYLYWF	-1.01 ± 0.39

Substance	amyloid nucleation score
LCWLATRVLSSNDSLYENME	3.65 ± 0.071
LCYMGRVA	0.224 ± 0.34
LDCLRFTDFILIISKFVPVL	0.026 ± 1.1
LDFHPVCRGMSSPCQCASMR	0.907 ± 0.2
LDKKVSVSAVRLTRRDASEE	2.25 ± 0.098
LDSSMSTGNLRLCFFESICS	0.232 ± 0.56
LDYDKNKFWAQHLYSKQSSL	0.805 ± 0.23
LDYRWKTGGSLWGG	-0.578 ± 1.1
LEAFWKVKSCSVRTGVYGID	-0.555 ± 0.79
LERLVSALLHTIRFRRMVVH	inactive
LESHLVMRYS	-0.307 ± 0.48
LEVKEVSEFLRLTYMYL	-1.67 ± 0.62
LFAIKTGQDHCNTRLKKSQC	-0.087 ± 0.76
LFCSRQSTWPRDKGVFPWTI	-0.916 ± 1.1
LFCTRMEVSLLGFWNSYAEL	-0.01 ± 0.45
LFDFGETVVIVLHVHSMLCL	4.41 ± 0.092
LFERFWFIL	0.187 ± 0.23
LFFSATKTCSWSLKECAKR	-0.243 ± 1.1
LFGLNFNLSNNLFMFFSYTQ	3.46 ± 0.082
LFLGLFKLCNLASFMLWSWF	-0.627 ± 1
LFNGECGICDQEKYLVRQTV	0.065 ± 1.1
LFNLKMSPSQRKNGLPVLTI	inactive
LFSCGKSMQLVMWYGLSFCG	0.306 ± 0.37
LFSLPPCFN	1.5 ± 0.11
LFVCMTLGYSLGKSHFDNGS	4.1 ± 0.044
LFVIWNTCVNYFLDVLSGHN	3.86 ± 0.12

Substance	amyloid nucleation score
LFVLLSDKTHSYSYAECQPM	3.65 ± 0.052
LFVYWV	0.126 ± 0.38
LGFAGSVGICDRKTLDRREC	4.91 ± 0.064
LGFDASLKLFLVQQGLSN	-0.341 ± 0.33
LGIYIVGTNVSSSWLFLCNR	0.476 ± 0.4
LGKFFNNPLLFGFY	inactive
LGLCEVNMFNIRHFTLRSCY	0.219 ± 1
LGLLCTVEIHYLGNMYIHRP	7.043 ± 0.045
LGLTSHTVPKCRCVGLMLMV	0.438 ± 0.29
LGMCRGLRLIMMDWFGSDKM	2.35 ± 0.075
LGSLDPKRHLYI	-0.784 ± 1.1
LGSLDSVFNSFHRAGS	-0.518 ± 0.56
LGTAKNFIPSGNVRLLALQF	inactive
LGTNMAMVGSN	-0.623 ± 0.27
LGVMRIVHVGLWSAR	-0.249 ± 0.55
LGWRVGWYASDAFYKPEWFD	-0.53 ± 0.41
LGYTSFYSFILKEGMFTAMG	0.434 ± 0.27
LHAGPDKSA	0.068 ± 0.46
LHIRVLSQVRLCDDWRASAS	-0.016 ± 0.33
LHMECLKDKSCNNSSADVRG	0.374 ± 0.62
LIADLQKFSYVSWAGCMTY	4.4 ± 0.085
LIICSAPCCVTTWQQLRTMQ	4.15 ± 0.047
LIIVMTLPYFGTSAM	0.362 ± 0.3
LILGLRGPLPCMLHNSGTYL	0.19 ± 1.1
LILGYFRKELFKNASFVLNF	4.05 ± 0.066
LILLY	-0.277 ± 1

Substance	amyloid nucleation score
LILRCLC	0.235 ± 0.8
LITQKHFTRVTNMPIRLCSL	-0.491 ± 0.41
LIVVKCLSRRYCFCLLSVVV	0.303 ± 0.32
LIYITVGRLQHGALCFLGKC	0.148 ± 1
LKAWYYSVYSRTVTYSPMLH	-1.03 ± 0.61
LKCHVLGVHCAL	0.205 ± 0.19
LKCPGLTREGLSPYKSSLPN	-0.202 ± 1
LKEHYF	-1.44 ± 0.55
LKGQYWVLRKGGCEGGLSAG	1.81 ± 0.45
LKLYDKAR	0.213 ± 0.55
LKMGVGCRGRLLWCSLTCMR	1.46 ± 0.31
LKNKSPCSR	0.039 ± 0.29
LKNNNQETGIEFYIFREHRD	4.22 ± 0.047
LKRRPFDAFNVRMVLVNECG	inactive
LKSDRSLMLIEPALDLIWYF	-0.27 ± 1.1
LKSEALDGAADCRGCYSGPL	0.374 ± 0.64
LKSKVTLSYYSIVPAISVYE	inactive
LKVAVLVSGLGLA	0.54 ± 0.46
LKYDSKPSRVWMEICLYDAR	7.192 ± 0.054
LLEFWDHLVYSMIECNRKNV	inactive
LLFIICTDSFRLPTANGELY	-1.17 ± 0.41
LLFLAG	-0.358 ± 0.79
LLFMSSNIFDMCREFDRC	inactive
